Measured values reported in publication PMC13466294, “Nucleolaron1511 and Nucleolaron1510 Facilitate Effective Intracellular Delivery of Azami Green Protein in HeLa Cells” (International Journal of Molecular Sciences, 2026).

How the values were obtained:
HeLa cells [1] = test: Cell viability by MTT assay; assay type: cell-based; details: 24 h
Experimental: To assess the cytotoxic potential of Nuc1511 and Nuc1510, HeLa cells were treated with AG–Nuc1511 or AG–Nuc1510 at concentrations of 1, 3, 5, and 10 µM for 24 h, and cell viability was quantified using the MTT assay (Figure 4). AG–Nuc1511 caused a gradual concentration-dependent decline in viability, reaching approximately 78% at 10 µM, which was statistically significant relative to the untreated control. […] Taken together, both fusion proteins were well tolerated at concentrations up to 5 µM, with cytotoxicity becoming apparent only at 10 µM.
HeLa cells were seeded at 1 × 10^4 cells per well in 96-well microplates (Nunc^TM MicroWell^TM; Thermo Fisher Scientific) and allowed to adhere overnight. The culture medium was replaced with AG–Nuc1511 or AG–Nuc1510 at 1, 3, 5, or 10 µM prepared in DMEM supplemented with 10% FBS. Cell viability was assessed by MTT assay. Following 24 h incubation, treatment solutions were removed and cells were washed with PBS. A mixture of 50 µL MTT solution (Fujifilm) (5 mg/mL in PBS) and 50 µL Opti-MEM I Reduced Serum Medium (Thermo Fisher Scientific) was added to each well, and plates were incubated at 37 °C for 3 h. The medium was then removed, and formazan crystals were dissolved by addition of 150 µL MTT solvent (4 mM HCl, 0.1% NP-40 substitute in isopropanol), followed by 30 min agitation on an orbital shaker protected from light, with additional pipetting to ensure complete dissolution. Absorbance was measured at 590 nm. All conditions were performed in triplicate.

HeLa cells [2] = test: Cellular uptake of TAMRA-labeled Nuc1510 by fluorescence microscopy; assay type: cell-based; details: 5 µM in DMEM with 10% FBS, 1 h, 4 h or overnight (any incubation condition)
Experimental: To examine the intrinsic cell-penetrating ability of Nuc1510, HeLa cells were treated with TAMRA-labeled Nuc1510 prepared in medium supplemented with 10% FBS and analyzed by fluorescence microscopy at 1 h, 4 h, and overnight incubation time points.
HeLa cells were seeded at 2 × 10^4 cells per well in 8-well chamber slides (Millicell EZ Slide, Sigma-Aldrich, St. Louis, MO, USA; or µ-Slide 8 Well glass-bottom, ibidi, Gräfelfing, Germany) and allowed to adhere for 24 h. For assessment of intrinsic cell-penetrating ability, the culture medium was replaced with free TAMRA or TAMRA–Nuc1510 at 5 µM prepared in DMEM supplemented with 10% FBS. For assessment of cargo delivery, cells were treated with AG, AG–Nuc1511, AG–Nuc1510, or AG–TAT at 1, 2, or 3 µM prepared in DMEM with 10% FBS. All cargo delivery treatments were performed at 37 °C, and the highest concentration (3 µM) was additionally tested at 4 °C to assess the contribution of energy-dependent uptake pathways.
TAMRA–Nuc1510 samples were incubated for 1 h, 4 h, or overnight at 37 °C, whereas all AG–CPP samples were incubated overnight only. […] Fluorescence imaging was performed using a Keyence BZ-X800 (Keyence, Osaka, Japan) digital fluorescence microscope. […]

four cell lines = details: CPP fused to EGFP, across four cell lines; ref 45 (Patel et al.); cited from earlier work
Experimental: To quantify intracellular delivery, flow cytometry was performed following a stringent surface-depletion protocol. Cells were washed with an acidic glycine-NaCl solution to disrupt electrostatic interactions between surface-bound AG–CPP and the plasma membrane, then treated with trypsin, which both detaches cells from the culture plate and cleaves CPP sequences at arginine and lysine residues—amino acids abundant in all constructs tested—thereby eliminating residual surface-associated fluorescence. This protocol ensures that the measured fluorescence predominantly reflects int ...

MKDHLIHNHHKEEHAHAHNKDYDIPTTHHAHHSTENLYFQGSSGSSGMSVIKPEMKIKLCMRGTVNGHNFVIEGEGKGNPYEGTQILDLNVTEGAPLPFAYDILTTVFQYGNRAFTKYPADIQDYFKQTFPEGYHWERSMTYEDQGICTATSNISMRGDCFFYDIRFDGTNFPPNGPVMQKKTLKWEPSTEKMYVRDGVLKGDVNMALLLEGGGHYRCDFKTTYKAKKDVRLPDAHKVDHRIEILKHDKDYNKVKLYENAVARYSMLPSQAKGLQQGGTGGGGSTLKERCLQVVRSLVKKKRTLRKNDRKKR [AG–Nuc1511, monomeric Azami Green genetically fused at its C-terminus via a linker to Nuc1511]
Viability (%) (HeLa cells [1]; 10 µM, relative to untreated cells (100%), n = 3, 10 µM): approximately 78%

5(6)-carboxytetramethylrhodamine [Free TAMRA]
Intracellular TAMRA fluorescence (HeLa cells [2]): no detectable intracellular fluorescence

MKDHLIHNHHKEEHAHAHNKDYDIPTTHHAHHSTENLYFQGSSGSSGMSVIKPEMKIKLCMRGTVNGHNFVIEGEGKGNPYEGTQILDLNVTEGAPLPFAYDILTTVFQYGNRAFTKYPADIQDYFKQTFPEGYHWERSMTYEDQGICTATSNISMRGDCFFYDIRFDGTNFPPNGPVMQKKTLKWEPSTEKMYVRDGVLKGDVNMALLLEGGGHYRCDFKTTYKAKKDVRLPDAHKVDHRIEILKHDKDYNKVKLYENAVARYSMLPSQAKGLQQGGTGGGGSKVLSRVVQLCREKLTRRRRSNRR [AG–Nuc1510, monomeric Azami Green genetically fused at its C-terminus via a linker to Nuc1510]
Reduction of viability (HeLa cells [1]; 10 µM): approximately 50%
Effect on viability (HeLa cells [1]; 1, 3, or 5 µM, Welch's t-test against untreated control): did not significantly reduce viability

Penetratin
Uptake efficiency relative to TAT (four cell lines): performed comparably to TAT
